The record followed here is article PMC3783652.

In the assay the target is CXCL12_(2), constitutively dimeric CXCL12 variant (locked dimer) (UniProt P48061). Kind of assay: NMR titration.

B1: 18SGDYDSM24, unsulfated Tyr21 peptide of CXCR4 (peptide)
peptide: Ac-SGDYDSM-NH2
As a reminder, the Kd is a measure of binding affinity in units of concentration. As for B1, the dissociation constant Kd turned out to be 831 µM.

B2: 18SGDsYDSM24, sTyr21 sulfopeptide of CXCR4 (peptide)
peptide: SGDYDSM
HELM: PEPTIDE1{[ac].S.G.D.[O=C([C@H](Cc1ccc(OS(=O)(=O)O)cc1)N[*:1])[*:2]].D.S.M.[am]}$$$$V2.0
SMILES: CSCC[C@H](NC(=O)[C@H](CO)NC(=O)[C@H](CC(=O)O)NC(=O)[C@H](Cc1ccc(OS(=O)(=O)O)cc1)NC(=O)[C@H](CC(=O)O)NC(=O)CNC(=O)[C@H](CO)NC(C)=O)C(N)=O
With B2, the dissociation constant (Kd) turned out to be 211 µM.

B3: 9SDNsYTEE15, sTyr12 sulfopeptide of CXCR4 (peptide)
peptide: SDNYTEE
HELM: PEPTIDE1{[ac].S.D.N.[O=C([C@H](Cc1ccc(OS(=O)(=O)O)cc1)N[*:1])[*:2]].T.E.E.[am]}$$$$V2.0
SMILES: CC(=O)N[C@@H](CO)C(=O)N[C@@H](CC(=O)O)C(=O)N[C@@H](CC(N)=O)C(=O)N[C@@H](Cc1ccc(OS(=O)(=O)O)cc1)C(=O)N[C@H](C(=O)N[C@@H](CCC(=O)O)C(=O)N[C@@H](CCC(=O)O)C(N)=O)[C@@H](C)O
The molecule B3 showed an equilibrium dissociation constant (Kd) of 266 µM.

B4: 4ISIsYTSD10, sTyr7 sulfopeptide of CXCR4 (peptide)
peptide: ISIYTSD
HELM: PEPTIDE1{[ac].I.S.I.[O=C([C@H](Cc1ccc(OS(=O)(=O)O)cc1)N[*:1])[*:2]].T.S.D.[am]}$$$$V2.0
SMILES: CC[C@H](C)[C@H](NC(C)=O)C(=O)N[C@@H](CO)C(=O)N[C@H](C(=O)N[C@@H](Cc1ccc(OS(=O)(=O)O)cc1)C(=O)N[C@H](C(=O)N[C@@H](CO)C(=O)N[C@@H](CC(=O)O)C(N)=O)[C@@H](C)O)[C@@H](C)CC
Turning to B4, the Kd was found to be 386 µM.

B5: 4ISIYTSD10, unsulfated Tyr7 peptide of CXCR4 (peptide)
peptide: Ac-ISIYTSD-NH2
B5 returned an equilibrium dissociation constant (Kd) of 418 µM.

B6: 9SDNYTEE15, unsulfated Tyr12 peptide of CXCR4 (peptide)
peptide: Ac-SDNYTEE-NH2
B6 gave a Kd of 332 µM.
